The numbers were not newly measured in paper PMC6767261, which cites them from elsewhere.

By Kd is commonly meant the equilibrium constant for the complex coming apart.

In the data set the target is Endothelin receptor type B (UniProt P24530). Put plainly: radioligand.
UniProt P24530, sequence (P24530 27-442): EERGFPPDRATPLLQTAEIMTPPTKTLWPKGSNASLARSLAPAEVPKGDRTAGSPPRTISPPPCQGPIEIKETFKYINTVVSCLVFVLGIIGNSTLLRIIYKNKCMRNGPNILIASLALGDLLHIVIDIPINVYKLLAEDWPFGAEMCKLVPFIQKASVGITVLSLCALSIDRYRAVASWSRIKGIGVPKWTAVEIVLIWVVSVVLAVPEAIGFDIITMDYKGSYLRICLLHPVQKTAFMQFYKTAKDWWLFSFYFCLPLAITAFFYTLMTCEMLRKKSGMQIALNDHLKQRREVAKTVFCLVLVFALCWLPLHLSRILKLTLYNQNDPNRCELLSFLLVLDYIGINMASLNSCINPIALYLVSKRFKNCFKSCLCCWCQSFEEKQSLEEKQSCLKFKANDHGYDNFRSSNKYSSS

For “Endothelin-1 ([125I]-ET-1), ciliary epithelium (from UniProt P05305)”, the Kd was 54.5 nM.
Consider “Endothelin-1 ([125I]-ET-1), ciliary muscle (from UniProt P05305)”, for which the Kd is 142 nM.
